Patent US20200369765A1 (INNATE PHARMA, published 2020)
Substitutions are numbered along the chain they refer to.

T1: Human Siglec-5 (human, UniProt O15389 17-551)
T1 construct: Expressed on transfected CHO cells; also called HuSiglec-5
T1 sequence: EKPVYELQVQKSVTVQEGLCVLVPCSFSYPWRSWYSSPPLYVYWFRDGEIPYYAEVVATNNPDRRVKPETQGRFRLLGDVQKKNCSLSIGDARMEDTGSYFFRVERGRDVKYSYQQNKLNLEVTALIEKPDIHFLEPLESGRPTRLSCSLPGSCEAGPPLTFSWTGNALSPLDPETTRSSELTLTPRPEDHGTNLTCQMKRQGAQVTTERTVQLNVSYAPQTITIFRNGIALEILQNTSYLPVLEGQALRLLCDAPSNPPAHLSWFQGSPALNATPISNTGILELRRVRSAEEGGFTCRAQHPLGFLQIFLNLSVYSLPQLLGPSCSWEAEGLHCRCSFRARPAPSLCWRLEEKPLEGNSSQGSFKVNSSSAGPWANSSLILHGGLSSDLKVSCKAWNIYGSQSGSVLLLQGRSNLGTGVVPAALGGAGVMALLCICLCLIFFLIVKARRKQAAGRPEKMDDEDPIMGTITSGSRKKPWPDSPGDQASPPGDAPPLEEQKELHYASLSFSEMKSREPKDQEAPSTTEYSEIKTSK

T2: Human Siglec-10 (human, UniProt Q96LC7 17-697)
T2 construct: Expressed on transfected CHO cells; also called HuSiglec-10
T2 sequence: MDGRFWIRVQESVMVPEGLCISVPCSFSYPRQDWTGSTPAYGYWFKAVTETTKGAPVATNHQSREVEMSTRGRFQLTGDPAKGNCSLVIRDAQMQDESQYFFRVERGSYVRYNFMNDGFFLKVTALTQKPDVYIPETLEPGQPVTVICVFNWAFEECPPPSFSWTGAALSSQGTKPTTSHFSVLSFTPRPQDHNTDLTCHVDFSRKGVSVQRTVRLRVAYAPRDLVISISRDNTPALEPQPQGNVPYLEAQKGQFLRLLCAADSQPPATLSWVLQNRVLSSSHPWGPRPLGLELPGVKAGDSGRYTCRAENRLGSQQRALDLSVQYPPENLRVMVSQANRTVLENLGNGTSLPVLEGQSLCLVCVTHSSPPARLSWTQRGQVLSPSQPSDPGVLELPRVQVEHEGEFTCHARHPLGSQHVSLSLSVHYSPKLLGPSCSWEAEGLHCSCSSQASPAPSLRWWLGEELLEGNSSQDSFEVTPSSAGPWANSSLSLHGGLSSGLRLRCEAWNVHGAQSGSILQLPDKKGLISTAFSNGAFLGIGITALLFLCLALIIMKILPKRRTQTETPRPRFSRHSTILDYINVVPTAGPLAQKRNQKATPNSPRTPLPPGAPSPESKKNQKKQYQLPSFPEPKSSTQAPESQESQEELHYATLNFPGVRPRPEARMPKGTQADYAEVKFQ

T3: Human Siglec-11 (human, UniProt Q96RL6 29-698)
T3 construct: Expressed on transfected CHO cells; also called HuSiglec-11
T3 sequence: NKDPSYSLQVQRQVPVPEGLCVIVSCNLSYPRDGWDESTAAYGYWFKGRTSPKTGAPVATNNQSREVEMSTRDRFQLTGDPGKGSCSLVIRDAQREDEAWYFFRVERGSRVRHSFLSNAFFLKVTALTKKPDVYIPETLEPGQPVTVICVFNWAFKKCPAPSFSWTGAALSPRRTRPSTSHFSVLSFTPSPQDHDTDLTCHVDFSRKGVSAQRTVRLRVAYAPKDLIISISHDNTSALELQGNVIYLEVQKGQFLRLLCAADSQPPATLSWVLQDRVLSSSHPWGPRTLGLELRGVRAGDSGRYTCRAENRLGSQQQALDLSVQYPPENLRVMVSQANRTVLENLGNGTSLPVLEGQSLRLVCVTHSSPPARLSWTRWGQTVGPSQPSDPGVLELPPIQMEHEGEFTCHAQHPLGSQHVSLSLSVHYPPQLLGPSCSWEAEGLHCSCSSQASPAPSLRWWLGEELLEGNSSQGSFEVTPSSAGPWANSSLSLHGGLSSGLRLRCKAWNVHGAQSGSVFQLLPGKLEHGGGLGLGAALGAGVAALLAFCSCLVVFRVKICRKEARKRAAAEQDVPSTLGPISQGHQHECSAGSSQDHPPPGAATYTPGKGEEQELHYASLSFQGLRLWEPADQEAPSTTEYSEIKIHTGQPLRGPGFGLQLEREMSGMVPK

B1: mAbA (antibody, human IgG1, V domains shown)
VH: QVQLQQPGAELVKPGSPVKLSCKASYFTFTSYWMHWVRQRPGQGLEWIGEINPSNGHTNYNEKFESKATLTVDRSSSTAYMQLSSLTSEDSAVFYCANGVESYDFDDALDYWGQGTSVTVSS
VL: DIQMTQTTSSLSASLGDRVTISCRASQDINNYLNWYQQKPDGTIKLLIYYTSRLHSGVPSRFSGSGSGTDYSLTINNLEQEDIATYFCQQGNTLPFTFGGGTKLEIK
B2: mAbB (antibody, human IgG1, V domains shown)
VH: QVQLQQPGAELVKPGASVKLSCKASVYTFTSYWMHWVKQRPGQGLEWIGEINPSNGHTNYNEKFKTKAKLTVDKSSSTAYMQLSSLTSEDSAVYFCANGVETYDFDDAMDYWGQGTSVTVSS
VL: B1 VL with I44V, Y50F, N76S, N92D, L94F
B3: mAb4 (antibody, human IgG1, V domains shown)
VH: DVQLVESGGDLVKPGGSLKLSCAASGFAFSSYDMSWVRQSPEKRLEWIAHIGSGGGNIYYPDTVKGRFTISRDNAKNTLYLQMRSLKSEDTAMYYCARLIFTTGFYGMDYWGQGTSVTVSS
VL: B1 VL with N30S, N31S, N76S, E79D, E81D, T93A, F96W
B4: mAbE (antibody, human IgG1, V domains shown)
VH: DVQLVESGGGLVQPGGSRKLSCAASGFTFSTFGMHWVRQAPEKGLEWVAYISSGSNAIYYADTVKGRFTISRDNPKNTLFLQMTSLRSEDTAMYYCASPGYGAWFAYWGQGTLVTVSA
VL: ENVLTQSPAIMSASPGEKVTMTCRASSSVSSAYLHWYQQKSGASPKLWIYSTSNLASGVPARFSGSGSGTSYSLTISSVEAEDAATYYCQQYSAYPYTFGGGTKLEIK
B5: mAb5 (antibody, human IgG1, V domains shown)
VH: EIQLQQSGPELEKPGASVKISCKASGYSFSDYNMNWVKQSNGKSLEWIGNIDPYYGATSYNQRFKGKATLTVDKSSSTAYMQLKSLTSEDSAVYYCARGDSLFAYWGHGTLVTVSA
VL: DIVMTQSQEFMSTSLGDRVSVTCKASQNVGTNVAWYQQKPGQSPKALLYSASSRYSGVPDRFTGSGSGTDFTLTISNVQSEDLAEYFCQQYITYPYTFGGGTKLEIK
B6: mAb6 (antibody, human IgG1, V domains shown)
VH: B5 VH with H108Q
VL: B5 VL with S76N, V78M
B7: mAbC (antibody, human IgG1, V domains shown)
VH: QIQLVQSGPELKKPGETVKISCKASGYTFTNYEMNWVKEAPGKGLKWMGWINTYTGESTYADDFKGRFAFSLETSASTVYLQINNLKDEDVATYFCVRDDYGRSYGFAYWGQGTLVTVSA
VL: NIVLTQSPASLTVSLGQRANISCRASESVDSYGNSFMHWYQQKPGQPPKLLIYLASKLESGVPARFSGSGSRTDFTLTIDPVETDDAATYYCHQNNEDPPWTFGGGTKLEIK

target: T1, Human Siglec-5; test: flow cytometry, CHO transfectants

binding result	Binder
no binding	B1
no binding	B2
no binding	B3
no binding	B4
no binding	B5
no binding	B6
no binding	B7

target: T4, Human Siglec-3 (human, UniProt P20138 18-364); test: flow cytometry, CHO transfectants
T4 construct: Expressed on transfected CHO cells; also called HuSiglec-3; CD33
T4 sequence (P20138 18-364 R69G): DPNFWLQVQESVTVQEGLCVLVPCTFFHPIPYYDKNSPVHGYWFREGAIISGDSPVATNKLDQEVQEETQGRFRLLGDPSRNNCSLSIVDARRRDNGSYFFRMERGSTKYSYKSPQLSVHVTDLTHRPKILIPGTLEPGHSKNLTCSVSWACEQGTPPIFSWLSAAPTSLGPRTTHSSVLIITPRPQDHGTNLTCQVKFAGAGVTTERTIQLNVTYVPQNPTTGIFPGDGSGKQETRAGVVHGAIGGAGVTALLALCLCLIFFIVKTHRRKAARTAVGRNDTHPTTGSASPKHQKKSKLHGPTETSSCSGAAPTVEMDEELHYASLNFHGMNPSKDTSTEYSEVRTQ

binding result	Binder
no binding	B1
no binding	B2
no binding	B3
no binding	B4
no binding	B5
no binding	B6
no binding	B7

target: T5, Human Siglec-12 (human, UniProt Q96PQ1 19-595); test: flow cytometry, CHO transfectants
T5 construct: Expressed on transfected CHO cells; also called HuSiglec-12
T5 sequence (Q96PQ1 19-595): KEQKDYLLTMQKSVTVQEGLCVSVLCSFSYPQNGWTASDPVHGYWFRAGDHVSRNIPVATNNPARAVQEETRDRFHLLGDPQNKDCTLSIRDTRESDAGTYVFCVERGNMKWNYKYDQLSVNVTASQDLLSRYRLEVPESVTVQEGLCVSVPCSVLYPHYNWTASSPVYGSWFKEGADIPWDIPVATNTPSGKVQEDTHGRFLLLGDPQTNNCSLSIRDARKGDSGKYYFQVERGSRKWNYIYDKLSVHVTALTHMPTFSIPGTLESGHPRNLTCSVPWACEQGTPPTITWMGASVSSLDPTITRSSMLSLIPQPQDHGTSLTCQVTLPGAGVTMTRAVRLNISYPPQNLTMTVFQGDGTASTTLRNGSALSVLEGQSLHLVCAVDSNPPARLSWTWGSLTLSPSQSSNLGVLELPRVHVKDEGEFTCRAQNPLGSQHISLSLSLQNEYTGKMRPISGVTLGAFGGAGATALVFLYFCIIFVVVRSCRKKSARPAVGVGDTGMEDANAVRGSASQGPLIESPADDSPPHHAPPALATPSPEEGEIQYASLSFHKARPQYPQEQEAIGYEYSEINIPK

binding result	Binder
no binding	B1
no binding	B2
no binding	B3
no binding	B4
no binding	B5
no binding	B6
no binding	B7

target: T6, Human Siglec-6 (human, UniProt O43699 27-453); test: flow cytometry, CHO transfectants
T6 construct: Expressed on transfected CHO cells; also called HuSiglec-6
T6 sequence (O43699 other isoform, or with tags, fused parts or gaps): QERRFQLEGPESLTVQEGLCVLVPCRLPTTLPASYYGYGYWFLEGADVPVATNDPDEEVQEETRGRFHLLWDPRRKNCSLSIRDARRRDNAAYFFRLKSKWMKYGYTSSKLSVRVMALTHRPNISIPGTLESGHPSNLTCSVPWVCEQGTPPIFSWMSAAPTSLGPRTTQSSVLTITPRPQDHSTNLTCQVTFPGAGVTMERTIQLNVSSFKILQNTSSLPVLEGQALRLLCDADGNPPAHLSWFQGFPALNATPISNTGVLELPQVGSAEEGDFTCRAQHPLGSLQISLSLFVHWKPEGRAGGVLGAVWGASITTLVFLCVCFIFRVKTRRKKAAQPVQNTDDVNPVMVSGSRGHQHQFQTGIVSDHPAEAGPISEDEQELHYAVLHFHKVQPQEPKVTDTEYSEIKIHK

binding result	Binder
no binding	B1
no binding	B2
no binding	B3
no binding	B4
no binding	B5
no binding	B6
no binding	B7

target: T7, Human Siglec-8 (human, UniProt Q9NYZ4 17-499); test: flow cytometry, CHO transfectants
T7 construct: Expressed on transfected CHO cells; also called HuSiglec-8
T7 sequence (Q9NYZ4 17-499): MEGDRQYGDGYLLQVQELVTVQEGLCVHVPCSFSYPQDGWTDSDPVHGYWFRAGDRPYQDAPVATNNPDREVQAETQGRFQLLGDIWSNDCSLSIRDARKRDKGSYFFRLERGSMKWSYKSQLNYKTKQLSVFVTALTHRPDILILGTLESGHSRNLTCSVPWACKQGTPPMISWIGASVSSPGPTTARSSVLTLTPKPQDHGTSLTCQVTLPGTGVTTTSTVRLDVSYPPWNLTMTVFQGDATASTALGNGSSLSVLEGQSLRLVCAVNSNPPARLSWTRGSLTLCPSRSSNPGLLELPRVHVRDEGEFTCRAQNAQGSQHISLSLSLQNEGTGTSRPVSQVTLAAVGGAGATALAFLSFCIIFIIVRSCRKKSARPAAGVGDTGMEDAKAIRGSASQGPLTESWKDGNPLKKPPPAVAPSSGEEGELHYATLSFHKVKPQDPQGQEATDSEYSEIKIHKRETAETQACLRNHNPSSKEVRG

binding result	Binder
no binding	B1
no binding	B2
no binding	B3
no binding	B4
no binding	B5
no binding	B6
no binding	B7

target: T2, Human Siglec-10; test: flow cytometry, CHO transfectants

binding result	Binder
no binding	B1
no binding	B2
no binding	B3
no binding	B4
no binding	B5
no binding	B6
no binding	B7

target: T3, Human Siglec-11; test: flow cytometry, CHO transfectants

binding result	Binder
no binding	B1
no binding	B2
no binding	B3
no binding	B4
no binding	B5
no binding	B6
no binding	B7

target: T8, Human Siglec-9 mutant M8 (human, UniProt Q9Y336 18-463); test: flow cytometry, HEK293T transfectants
T8 construct: Expressed on HEK293T cells; also called Mutant 8
T8 sequence (Q9Y336 other isoform, or with tags, fused parts or gaps mutant): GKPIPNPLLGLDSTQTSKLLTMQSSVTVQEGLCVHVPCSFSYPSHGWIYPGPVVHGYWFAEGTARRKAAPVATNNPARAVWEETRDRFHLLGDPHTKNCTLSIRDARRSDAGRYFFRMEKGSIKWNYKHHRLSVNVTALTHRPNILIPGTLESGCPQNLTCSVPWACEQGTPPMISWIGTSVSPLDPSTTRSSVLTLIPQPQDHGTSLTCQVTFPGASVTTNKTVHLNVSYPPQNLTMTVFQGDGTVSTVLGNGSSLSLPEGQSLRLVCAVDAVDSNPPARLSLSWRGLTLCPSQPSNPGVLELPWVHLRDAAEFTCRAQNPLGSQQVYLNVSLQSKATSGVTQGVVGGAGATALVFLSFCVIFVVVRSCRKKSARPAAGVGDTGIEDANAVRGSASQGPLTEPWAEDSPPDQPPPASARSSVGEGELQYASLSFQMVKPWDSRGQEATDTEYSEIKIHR

binding result	Binder
binds	B1
binds	B2

target: T9, Human Siglec-9 mutant M3 (human, UniProt Q9Y336 18-463); test: flow cytometry, HEK293T transfectants
T9 construct: Expressed on HEK293T cells; also called Mutant 3
T9 sequence (Q9Y336 other isoform, or with tags, fused parts or gaps mutant): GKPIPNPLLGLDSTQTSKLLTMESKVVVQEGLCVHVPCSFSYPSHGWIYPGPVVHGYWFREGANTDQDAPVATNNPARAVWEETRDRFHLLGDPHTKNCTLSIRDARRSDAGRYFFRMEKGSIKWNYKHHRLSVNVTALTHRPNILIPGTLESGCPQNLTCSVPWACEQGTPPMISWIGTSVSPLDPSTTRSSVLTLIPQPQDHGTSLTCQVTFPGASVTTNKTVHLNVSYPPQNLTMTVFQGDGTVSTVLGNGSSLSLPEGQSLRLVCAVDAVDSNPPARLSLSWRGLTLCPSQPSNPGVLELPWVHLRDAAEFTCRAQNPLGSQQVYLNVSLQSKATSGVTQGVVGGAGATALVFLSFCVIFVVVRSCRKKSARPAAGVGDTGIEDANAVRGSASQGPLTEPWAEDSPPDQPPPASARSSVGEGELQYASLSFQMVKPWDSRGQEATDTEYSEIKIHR

binding result	Binder
binds	B1
binds	B2
binds	B4
binds	B7

target: T10, Human Siglec-9 mutant M15 (human, UniProt Q9Y336 18-463); test: flow cytometry, HEK293T transfectants
T10 construct: Expressed on HEK293T cells; also called Mutant 15
T10 sequence (Q9Y336 other isoform, or with tags, fused parts or gaps mutant): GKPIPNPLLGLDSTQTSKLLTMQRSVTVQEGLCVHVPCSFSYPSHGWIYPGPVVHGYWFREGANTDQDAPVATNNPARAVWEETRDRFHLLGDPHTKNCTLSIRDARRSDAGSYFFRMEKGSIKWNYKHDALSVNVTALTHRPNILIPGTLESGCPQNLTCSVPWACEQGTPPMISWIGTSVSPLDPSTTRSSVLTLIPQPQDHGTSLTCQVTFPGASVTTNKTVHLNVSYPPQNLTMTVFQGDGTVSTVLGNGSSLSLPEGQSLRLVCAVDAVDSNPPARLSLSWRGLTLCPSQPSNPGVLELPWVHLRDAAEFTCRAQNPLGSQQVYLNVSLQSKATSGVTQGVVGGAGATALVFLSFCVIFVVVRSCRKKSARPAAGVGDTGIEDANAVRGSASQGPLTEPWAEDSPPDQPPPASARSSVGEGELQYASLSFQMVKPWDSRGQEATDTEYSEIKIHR

binding result	Binder
binds	B1
binds	B2
binds	B4
binds	B7

target: T11, Human Siglec-9 mutant M14 (human, UniProt Q9Y336 18-463); test: flow cytometry, HEK293T transfectants
T11 construct: Expressed on HEK293T cells; also called Mutant 14
T11 sequence (Q9Y336 other isoform, or with tags, fused parts or gaps mutant): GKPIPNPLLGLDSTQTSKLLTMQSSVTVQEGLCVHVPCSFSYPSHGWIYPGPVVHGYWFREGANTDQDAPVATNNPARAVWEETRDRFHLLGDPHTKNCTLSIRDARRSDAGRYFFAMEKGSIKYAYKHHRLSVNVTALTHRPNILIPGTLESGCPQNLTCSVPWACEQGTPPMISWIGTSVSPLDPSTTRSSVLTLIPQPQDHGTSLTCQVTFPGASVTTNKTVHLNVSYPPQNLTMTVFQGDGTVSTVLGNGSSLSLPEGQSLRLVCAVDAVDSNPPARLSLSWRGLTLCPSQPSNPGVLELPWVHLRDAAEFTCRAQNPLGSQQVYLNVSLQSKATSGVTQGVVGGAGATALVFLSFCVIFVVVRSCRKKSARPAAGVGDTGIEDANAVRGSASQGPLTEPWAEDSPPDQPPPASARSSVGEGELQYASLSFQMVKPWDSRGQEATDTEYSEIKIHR

binding result	Binder
binds	B4
binds	B7

target: T12, Human Siglec-9 mutant M5 (human, UniProt Q9Y336 18-463); test: flow cytometry, HEK293T transfectants
T12 construct: Expressed on HEK293T cells; also called Mutant 5
T12 sequence (Q9Y336 other isoform, or with tags, fused parts or gaps mutant): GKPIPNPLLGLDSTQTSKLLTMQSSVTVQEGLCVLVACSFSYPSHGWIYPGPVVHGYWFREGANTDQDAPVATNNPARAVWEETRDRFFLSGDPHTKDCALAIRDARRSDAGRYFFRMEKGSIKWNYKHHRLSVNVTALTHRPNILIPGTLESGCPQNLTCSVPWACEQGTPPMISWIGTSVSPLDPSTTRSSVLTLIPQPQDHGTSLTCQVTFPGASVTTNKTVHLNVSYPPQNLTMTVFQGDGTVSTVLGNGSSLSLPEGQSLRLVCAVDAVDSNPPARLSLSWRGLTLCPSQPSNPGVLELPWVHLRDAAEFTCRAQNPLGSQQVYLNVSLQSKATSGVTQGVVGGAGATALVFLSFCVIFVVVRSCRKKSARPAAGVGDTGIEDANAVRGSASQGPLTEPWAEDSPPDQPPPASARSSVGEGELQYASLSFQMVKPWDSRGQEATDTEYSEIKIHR

binding result	Binder
binds	B1
binds	B2
binds	B4
binds	B7

target: T13, Human Siglec-9 mutant M7 (human, UniProt Q9Y336 18-463); test: flow cytometry, HEK293T transfectants
T13 construct: Expressed on HEK293T cells; also called Mutant 7
T13 sequence (Q9Y336 other isoform, or with tags, fused parts or gaps mutant): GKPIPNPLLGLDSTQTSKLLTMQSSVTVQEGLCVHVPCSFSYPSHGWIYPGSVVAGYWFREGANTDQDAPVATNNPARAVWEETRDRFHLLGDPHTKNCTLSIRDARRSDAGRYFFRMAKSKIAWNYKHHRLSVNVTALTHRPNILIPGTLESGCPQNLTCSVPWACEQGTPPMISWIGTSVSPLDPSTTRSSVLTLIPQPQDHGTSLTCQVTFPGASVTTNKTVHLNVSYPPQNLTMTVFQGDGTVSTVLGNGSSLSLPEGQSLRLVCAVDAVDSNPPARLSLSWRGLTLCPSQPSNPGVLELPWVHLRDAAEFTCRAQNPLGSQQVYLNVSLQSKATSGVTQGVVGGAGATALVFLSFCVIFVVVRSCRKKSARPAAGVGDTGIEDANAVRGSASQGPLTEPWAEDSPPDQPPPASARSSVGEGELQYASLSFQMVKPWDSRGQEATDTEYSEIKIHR

binding result	Binder
binds	B1
binds	B2
binds	B4
binds	B7
